In the nanobody polyreactivity screen of Harvey et al. (2022):

Assay: yeast display, Sf9 membrane polyspecificity reagent, FACS + sequencing; frameworks hold sequencing errors
In short: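 A synthetic nanobody library was expressed on Saccharomyces cerevisiae BJ5465 by galactose induction for 36–48 hours. The library was stained for 1 hour at 4 °C with 10% biotinylated, detergent-solubilized Sf9 membrane reagent and enriched with streptavidin microbeads before FACS. Low and high (top ~1%) gates were set on anti-HA fluorescence for expression and streptavidin fluorescence for reagent binding, and each polyreactivity label reflects the gate of origin.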

Sequence	polyreactivity (PSR sort gate)
QVQLVESGGGLVQAGGSLRLSCAASGSTFWVNAMGWYRQAPGKERELVAAITVRGTSTYYADSVKGRFTISRDNAKNTVYLQMNSLKPEDTAVYYCAADTPSNSHDYWGQGTQVTVSS	low polyreactivity
QVQLVESGGGLVQAGGSLRLSCAASGSTFWVNARGWYRQAPGKERELVAAIRRGGSTKYADSVKGRFTISRDNAKTTVYLQMNSLKPEDTAVYYCAADSYRTPAIYDYWGQGTQVTVSS	high polyreactivity
QVQLVESGGGLVQAGGSLRLSCAASGSTFWVYAMGWYRQAPGKERELVAGISNSGGNTYYADSVKGRFTISRDNAKNTVYLQMNSLKPEDTAVYYCNVDRGNPVPPSEYWGQGTQVSVSS	low polyreactivity
QVQLVESGGGLVQAGGSLRLSCAASGSTFWWTTMGWYRQAPGTERELVAAITTGGGTYYADSVKGRFTISRDNAKNTVYLQMNSLKPEDTAVYYCNADYDSQYHYLLRYDYWGQGTQVTVSS	low polyreactivity
QVQLVESGGGLVQAGGSLRLSCAASGSTFWWYAMGWYRPAPGKERELVARISNGGGTNYADSGKGRFTISRDNEKNSVFLQMNSLIPEDTAVYYCAATVGVAYYENDYWGQGTQVTVSS	low polyreactivity
QVQLVESGGGLVQAGGSLRLSCAASGSTFWYNTMGWYRQAPGKERELVAAITSSGGSTYYADSVKGRFTISRDNAKNTVYLQMNSLKPEDTAVYYCNALHTRTGVKARYYYWGQGTQVTVSS	high polyreactivity
QVQLVESGGGLVQAGGSLRLSCAASGSTFWYYDMGWYRQAPGKERELVAAITSGGRTNYADSVKGRFTISRDNAKNTVYLQMNSLKPEDTAVYYCNAVSYGKYVFQDGDYWGQGTQVTVSS	high polyreactivity
QVQLVESGGGLVQAGGSLRLSCAASGSTFWYYDMGWYRQAPGQERALVAASTSGGRTNYADSVKGRVTISRDKAKNTVYLQMNSLKPEDTAVYYCARTSYRFYRKRYYWGQGTQVTVSS	high polyreactivity
QVQLVESGGGLVQAGGSLRLSCAASGSTFWYYGMGWYRQAPGKEMELVARINWSTGRTYYADSVKGRFTISRDTAKNTVYLQMNSLKPEDTAVYYCNALNPYKGQEAHYDYWGQGTQVTVSS	high polyreactivity
QVQLVESGGGLVQAGGSLRLSCAASGSTFWYYTMGWYRQAPGKERELVAGITSGGSTYYADSVKGRFTISRDNAKNTVYLQMNSLKPEDTAVYYCAKRYYGRGYYYWGQGTQVTVSS	high polyreactivity
QVQLVESGGGLVQAGGSLRLSCAASGSTFYANAMGWYRQAPGKERELVAAITRSGAGTYYADSVKGRFTFSRDNAKNTVYLQMNSLKPEDTAVYYCATRYGQWGQGTQVTVSS	high polyreactivity
QVQLVESGGGLVQAGGSLRLSCAASGSTFYANAMGWYRQAPGKERELVAEISFSGASTFYADSVKGRFTISRDNAKNTVYLQMNSLKPEDTAVYYCATANPSVVGFDYWGQGTQVTVSS	low polyreactivity
QVQLVESGGGLVQAGGSLRLSCAASGSTFYANPMGWYRQAPGKERELLAAITSGGSTNYADSVKGRFTISRDNAKITVYLQMISLKPEDTAVYYCATQVNRERHAEDYWGQGTQVTVSS	low polyreactivity
QVQLVESGGGLVQAGGSLRLSCAASGSTFYAYAMGWYRPAPGKERELVAAISSDGTNYADSVKGRFTISRDNAKNTVYLQMNSLKPEDTAVYYCAADLLLYSSQDNDYWGQGTQVTVSS	low polyreactivity
QVQLVESGGGLVQAGGSLRLSCAASGSTFYAYAMGWYRQAPGKERELVAAIRRSTGRTYYADSVKGRFTISRDNAKNTVYLQMNSLKPEDTAVYYCAASYPVDYYDMYYWGQGTQVTVSS	high polyreactivity
QVQLVESGGGLVQAGGSLRLSCAASGSTFYAYAMGWYRQAPGKERELVAAISSDGTNYADSVKGRFTISRDNAKNSVNLQMNSLKPVDTAVYYCAADLLLYSSQDNDYWGQGTQVTVSS	low polyreactivity
QVQLVESGGGLVQAGGSLRLSCAASGSTFYAYAMGWYRQAPGKERELVARIRWRGGRTYYADSVKGRFTISRDNAKNTVYLRMNSLKPEDTAVYYCNRGYYSYYGRYYYWGQGTQVTVSS	high polyreactivity
QVQLVESGGGLVQAGGSLRLSCAASGSTFYAYAMGWYRQAPGKERELVAVITSSGSTYYADSVKGRFTISRDNAKNTVYLQMNSLKPEDTAVYYCAAKRLSQSRRTQFRTRYPPMYYWGQGTQVTVSS	high polyreactivity
QVQLVESGGGLVQAGGSLRLSCAASGSTFYAYAMGWYRQAPGKGGELVAAIDSGGSTYYADSVKGRFTISRDNAKNTVYLQMNSLKPEDTAVYYCAVRHRYTRAYWGRDYWGQGTQVTVSS	low polyreactivity
QVQLVESGGGLVQAGGSLRLSCAASGSTFYAYAMGWYSQAPGKERELVAAITRSGGSTYYADSVKGRFTISRDNAKNTVYLQMNSLKPEDTDVYYCNKYGYKGGVGYDYWGQGTQVTLSS	high polyreactivity
QVQLVESGGGLVQAGGSLRLSCAASGSTFYDNAMGWYRQAPGKERELVAAINWSSDTTYYADSVKGRFTISRDNAKNTVYLQMNSLKPEDTAVYYCATDSAYRGYDYWGQGTQVTVSS	low polyreactivity
QVQLVESGGGLVQAGGSLRLSCAASGSTFYDYAMGWSRQAPGKERELVAAINGNGDSTYYADSVKGRFTISRDNAKITVYLLMNSLKPEDTAVYDCAAYLGWGYDYWGQGTQVTVSS	low polyreactivity
